The results in this text go back to the nanobody polyreactivity screen of Harvey et al. (2022).

The series in a line: yeast display, Sf9 membrane polyspecificity reagent, FACS + sequencing; frameworks hold sequencing errors. An outline of the steps:
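Using colony PCR, genes from sorted yeast display clones were amplified, then sequenced on MiSeq at 2 × 250 and filtered by CDR length. The clones had been stained with 10% biotinylated, detergent-solubilized Sf9 membrane reagent for 1 hour at 4 °C and sorted by FACS into low and high (top ~1%) gates on anti-HA and streptavidin fluorescence. Polyreactivity labels come from the gate of origin.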
Regarding “QLQLVESGGGLVQAGGSLRLSCAASGSTFRYNAMGWYRQAPGKEREFVAAITSGGGSTYYADSVKGRFTISRDNAKNTVYLQMNSLKPEDTAVYYCAKYTSSRRNTWYYYWGQGTQVTVSS”, the “polyreactivity (PSR sort gate)” value is reported as “high polyreactivity”. To “QLQLVESGGGLVQAGGSLRLSCAASGSTISGYAMGWYRQAPGKARELVARINSGGGRTYYADSVKGRFTISRDNAKNTVYLQMNSLKREDTEVYYFAAYSKPFPYVSTIRYYYWGQGTQVTVSS” belongs “high polyreactivity”. To “QLQLVESGGGLVQAGGSLRLSCAASGSTLDRYVMGWYRPAPGKERELVAAISRNGGSTYYADSVKGRFTISRDIAKNTVYLQMNSLKPEDTAVYYCAAYIYQSPTRGGGYWGQGTQVTVSS” belongs “high polyreactivity”; to “QLQLVESGGGLVQAGGSLRLSCAASGSTYGPYAMGWYRQAPGKERELVSAITISGDSTNYADSVKGRFTISRDNAKNTVYLQMNSLKPEDTAVYYCAAAYYWLQSWYDYWGQGTQVTVSS”, “low polyreactivity”; to “QLQLVESGGGLVQAGGSLRLSCAASGYMGWYRQAPGKERELVATISGSGGSTYYADSVKGRFTISRDNAKNTVYLQMNSLKPEDTAVYYCTTEIWGVNRSGYDYWGQGTQVTVSS”, “low polyreactivity”. Consider “QLQLVESGGGLVQAGGSLRLSCAASGYTFKTNDMGWYRQAPGKEREFVAAIDSGGNTYYADSVKGRFTISRDNAKNTVYLQMNSLKPEDTAVYYCAAYRDYQNDYWGQGTQVTVSS”, for which the “polyreactivity (PSR sort gate)” value is on record as “low polyreactivity”. On to “QLQLVESGGGLVQAGGSLRLSCAPSGRIFPSYAMGWYRQAPGKERELVAPISWSGVSTYADSVKGRFTISRDNAKNTVYLQMNSVKPEDTAVYFCAAQYTLVIFPYGGYVIEYEYWGQGTQVTVSS”, for which the “polyreactivity (PSR sort gate)” value is given as “low polyreactivity”. Turning to “QLQLVESGGGLVQAGGSLRLSCAPTGRTFYRNAMGCKRPAPGKESELVASIRRNGGSTYYADSVKGRFTITRDNAKNTVYLPMNSMKPEDTAVYYCAAYFSYAGPKGAVYGMDYWGQGTQVTVSS”, the “polyreactivity (PSR sort gate)” value is on record as “high polyreactivity”.

Take “QLQLVESGGGLVQAGGSLRLSCASSGIIFRWYTIGWSRQAPGKERELDAAITGRGGSTFYADSVKGRFTISRDNAKNTVYVQMNSLKPEDTAFYYCAAQYSYPTPYRTYEYDYWGQGTQVTVSS”: the “polyreactivity (PSR sort gate)” value was “high polyreactivity”. Regarding “QLQLVESGGGLVQAGGSLRLSCASSGSIFLFNAMGWYRQAAGQERELVAAITSSGTRTYYADSVKGRFTISRDNAKNTVYLQMNSLKPEDTAVYYCNAVGPVDSYHRYYYWGQGTQGTVSS”, the “polyreactivity (PSR sort gate)” value is “low polyreactivity”. Take “QLQLVESGGGLVQAGGSLRLSCASSGSNFQPYAMGWYRQAPGIERELVAAISRGGTTYYADSVKGRFTISRDNAKTTVYLQMNSLKPEDTAVYYCAADSYKPDGYRLRNDYWGQGTQVIVSS”: the “polyreactivity (PSR sort gate)” value is “high polyreactivity”. In the case of “QLQLVESGGGLVQEGGSLRLSCAASGSTFVYNDKGWYRQAPGKDRELVAAITSGVRTYYSDYVKGRFTISRDNAKNTVYLQMNSLKPEDTALYYCGTGWRYAQYYYWGQGTQVTVSS”, the “polyreactivity (PSR sort gate)” value is “high polyreactivity”.

As for “QLQLVESGGGVVQAGGSLRLSCAASGGIFDRYAMGCDRQAPGKERELVAAITSGGSTNYADSVKGRFTISRDNAKNTVYLQMNSLQPEDTAVYYCNADLGILSGVAEGPTFREYDYWGQGTQVTVSS”, the “polyreactivity (PSR sort gate)” value was “low polyreactivity”.

As to “QLQLVESGGRLVQAGGSLRLSCAASGFIFRWNAMGCYIQAPGKASEFVAAITSSTGSTYYAVSVKGRFTISRDNAKNTVYLQMNSLKPEDTAVYDCAADKRGTVYLSSFWMDYWGQGTQVTVSS”, the “polyreactivity (PSR sort gate)” value was “low polyreactivity”. “QLQLVESGGVLVQAGGSLRLSCAASGTFYGYVMGWYRQAPGKERELGASINWSGGSTNYADSVKGRFTISRDNAKNTVFFQMNSRKPEDTAVYYCNADWGWGAYDYWGQGTQVTVSS”: the “polyreactivity (PSR sort gate)” value is “low polyreactivity”. To “QLQLVESGRGLVQAGGSLRLSCAPSGRILVLIAMGWYRQATGKERELVADITSGGSTYYADSVKGRFTISRDNAKKTVYLQMNSLKKEDTAVYYCAADWNTYPDYQQSYFVCYEYNYWGQGTQVTVSS” belongs “low polyreactivity”. For “QLQLVESGRGLVQAGGSLRLSCDASGYIFGWYAMGSYRQAPGKERELVAAITRGVSTNYADSVKGRFTISRENAMNTVYLQMNSLKPEDTAVYYCNTEDWAVGSPEVEYEYDYWGQGTQVTVSS”, the “polyreactivity (PSR sort gate)” value is reported as “low polyreactivity”.

Take “QLQLVESVGGLVQAGGSLRLSCASSGRTFDYNAMGWYRQAPGKERELVARISNGDSTYADSVKGRFTISRDNAKNTVYLQMNSLKPVDTAVYYCAKSTRRGGVALGEYDYWGQGTQVTVSS”: the “polyreactivity (PSR sort gate)” value is on record as “low polyreactivity”. To “QLQLVETGGGIVQAAGSLRLSCAASGFTYNRYAKGWYRKAPGKERELVAAISRGGTTYADSVKGRFTISRDNAKNTVYLQMNSLKPEDTAVYYCNRLRYGYPQEFGYWGQGTQVTVSS” belongs “high polyreactivity”; to “QLQLVETGGGLVQAGGSLRLSCAATGSTFQGYPMGWYRQAPGKDRELVAAISWNGGSTYYADSVKGRFTISRDNAKNTVYLQMNSLKPEDTAVYYCAAYSFAYSYNYWGQGTQVTVSS”, “high polyreactivity”. As for “QLQLVQSGGGLVQAGGSLRLSCAASGITSPYAMGWYRQAPGKERELVARNSKGGGSTYYADSVKGRFTISRDNAKNTVYLQMNSLKPEDTAVYYCAADWYNRSRPRYYTRYYYWGQGTQVTVSS”, the “polyreactivity (PSR sort gate)” value is “high polyreactivity”.

Regarding “QVEHVESGGALGQAGGSLRLSCAASGITFAPYAMGWYREAPGKETEFDAGINTGGSKYYADSVKGRFTISRDNAKNTFYVQMNSLKPEDTAVYFCATESYPADQDIPGSDYWGQGTQVTVSS”, the “polyreactivity (PSR sort gate)” value is “low polyreactivity”. To “QVELQVSGGGLVRAGGSLRLSCAASGNIFDADIMGWYRQAPGKERELVASITGGGSTSYAESAKGRFTISRDNAKNAVYLQMNSLKPEDTAVYYCAKDGYVYGDWYTYAYDYWGQGTQVTVSS” belongs “low polyreactivity”. “QVELVESAGGLVQAGGSLRLSCAASGRIFAYNAMGWYRQAPGKERELVAAISQSGGSTYYADSVKGRFTISRANAKNTVYLQLNSLKPEDTAVYYCHAVYGRQYRGYNYKYYYWGQGTQVTVSS”: the “polyreactivity (PSR sort gate)” value is given as “high polyreactivity”. With “QVELVESGAGLVQAGGSLRLSCAASGRIFRYYVKGWYRQAPGKESELVAAISSGGSTNYADSVKGRFTISRDNAKNTVYLQMNSLKPEDTAVYYCNRDIGGSSVLDDYWGQGTQVTVSS”, the “polyreactivity (PSR sort gate)” value is given as “low polyreactivity”. To “QVELVESGGGLVQAGGSLRLSCAASGITFYVYTMGWYRQAPGKERELVAAINGSGGSTNYADSVKGRFTISRDIAKNTVFLQMNSLKPEDSAVYYCAADWSLRLYDYWGQGTQVTVSS” belongs “low polyreactivity”.

Turning to “QVELVESGGGLVQAGGSLRLSCAASGRIFSPNAMGWYRQAPGKERELVAALTGSGGTTYYADSVKGRFKISRDNAKNTVYLQMNSLKREDTAVYYCAADLYPFSRNPRYQFLYNYWGQGTQVTVSS”, the “polyreactivity (PSR sort gate)” value is “low polyreactivity”.

Regarding “QVELVESGGGLVQAGGSLSLSCAASGFTFVGNTMGWYRQAPGKEREWGAAIRGRDGRTYYADSVKGRFTISRDKAKNTVYLQMNSLKPEETAVYYCNVDVKYSVRSEIDYWGQRTQVTVSS”, the “polyreactivity (PSR sort gate)” value is listed as “low polyreactivity”. With “QVELVESGGGLVQGGGTLRLSCAASGRTFNRYAMGWYRQAPGKERELVASITRSGGSTYYADSVKGRFTISRENAKNTVSLQMNSLKPDHTAVYYCANRSSGCFGYWGQGTQVTLSS” the entry was “high polyreactivity”.

With “QVHHVESAGGLVQAGGILRLSCAASGRTFGANAMGWYRQPPVKERELVAAISKSGGRTYYADSVTGRFTISRDNAKNTVYLQMNSLKPEDTEVYYCNKVMCVSQAGGFDYWGQGTQVTVSS”, the “polyreactivity (PSR sort gate)” value is reported as “high polyreactivity”. As to “QVHHVESGGGLVQAGGSLRLSCAAYGFIFNVYAMGWYRQAPGKERELVAAISTSGSNTYYADSVKGRFTISRDNAKNTVYLQMNSLKPEDTADYYCAAAYRYPSGRSFGYWGQGTQVTVSS”, the “polyreactivity (PSR sort gate)” value is listed as “high polyreactivity”. With “QVHHVESGGGVVQAGGSLRLSCAASGRITYVNAMGWYRQPPGKESELVATITGSGDSKHYADSVKGRFTISRDNAMNTVYLQMNSLKPEVTAVYYGAADVYRYWQIYEYWGQGTQVTVSS” the entry was “low polyreactivity”. For “QVHIVESGGGLDQAGGSLRLSCAASGFTFNAYAMGWYRQAPGKERELVAAISGRGSSTYYADSVKGRFTISRDNAKNTVYLQMNSLKPEDTEVYYCATKFYYQYPYRGDYWGQGTEVTVSS”, the “polyreactivity (PSR sort gate)” value is recorded as “high polyreactivity”. To “QVHLEESGGGLVQAGGSLRISCAASGSTFYYYAMGWYRQAPGKERELVAAISNRDGRTYYADSVKGRFTISRDNAKNTVYLQMNSLKPEDSAVYYCNAYSYGHYYWGQGTQVTVSS” belongs “high polyreactivity”. With “QVHLEESGGGLVQAGGSLRLSCAASGGTILAYAMGWYRQAPGKERELVAAITRRGTRTYYADSVKGRFTISLDNAKNTVYLQMNSLKPEVTAVFYCAVSGGFYWGQGTQVTVSS” the entry was “high polyreactivity”; with “QVHLEESGGGLVQAGGSLRLSCAASGIIFHFNDRGWYRQATGKERELVAAITSGGSTNYADSVKGRFTISRDNAKNTVYLQMNSLKPEDTAVYYCAARRCLRLFAYRHGYWGQGTQVTVSS”, “low polyreactivity”.

Regarding “QVHLEESGGGLVQAGGSLRLSSAASGSNFDYNAMGWYRQAPGKERELVAAISRTGGRTYYADSVKGRFTISRDNAKNTVYLQMNSLKPEDTAVYYWNAVNRIGGGDYDYWGLGTQVTVSS”, the “polyreactivity (PSR sort gate)” value is given as “low polyreactivity”. With “QVHLEESGGRLVQEGGSLRISCAASGSILRSYAMGWYRQAPGKERELVAVINRGTSTNYADSVKGRFTISRDNAKNTVYLQMNSVKPEDTAVYYCAVAVLPWQLDSESYAEYDYWGEGTQVTVSS” the entry was “low polyreactivity”; with “QVHLEESGRGLLQAGGSLRLSCDASGSTQNLYVMGWYRQAPGKESELVAAITSRGGRTYYADSVKGRFTISRDNAKNTVYLHMNSLKPEDTAVYYCAATKKTGYYRYYYWGQGTQVTVSS”, “high polyreactivity”. As to “QVHLGDSGGGLVQAGGSLRLSCAASGRIFWTYAMGWYRQAPGKERELVAAIRWSSGSTRYADSVKGRFTISRDNAKNTVYLQLNSVKPEDTAVYYCAADAFRSQRPYTYDYWGQGTQVTVSS”, the “polyreactivity (PSR sort gate)” value is recorded as “high polyreactivity”.
